Where two headings read alike, the source gives them in different places.
T1: Recombinant human ADAMTS-5 (adamalysin with thrombospondin motifs 5), full-length (human, UniProt Q9UNA0 262-930)
T1 sequence (looked up): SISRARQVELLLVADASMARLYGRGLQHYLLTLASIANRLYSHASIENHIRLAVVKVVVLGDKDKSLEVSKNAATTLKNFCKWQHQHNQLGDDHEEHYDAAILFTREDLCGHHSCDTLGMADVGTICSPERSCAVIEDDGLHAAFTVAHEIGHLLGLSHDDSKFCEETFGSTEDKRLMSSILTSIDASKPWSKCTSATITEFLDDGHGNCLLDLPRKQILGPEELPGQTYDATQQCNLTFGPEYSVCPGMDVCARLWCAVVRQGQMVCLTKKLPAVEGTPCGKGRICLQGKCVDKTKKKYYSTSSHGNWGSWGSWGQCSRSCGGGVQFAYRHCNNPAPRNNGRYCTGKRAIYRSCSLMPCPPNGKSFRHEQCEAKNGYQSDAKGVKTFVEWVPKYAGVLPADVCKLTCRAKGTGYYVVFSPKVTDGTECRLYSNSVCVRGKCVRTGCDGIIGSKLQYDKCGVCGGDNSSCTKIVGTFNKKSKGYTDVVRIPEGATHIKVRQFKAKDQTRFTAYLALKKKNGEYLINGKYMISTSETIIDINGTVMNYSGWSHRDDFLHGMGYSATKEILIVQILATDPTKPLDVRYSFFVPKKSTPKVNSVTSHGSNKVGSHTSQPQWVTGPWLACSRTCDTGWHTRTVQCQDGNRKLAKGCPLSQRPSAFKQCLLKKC

T2: ADAMTS5-2 (ADAMTS-5 lacking the C-terminal TS-2 domain) (human, UniProt Q9UNA0 262-874)
T2 sequence (looked up): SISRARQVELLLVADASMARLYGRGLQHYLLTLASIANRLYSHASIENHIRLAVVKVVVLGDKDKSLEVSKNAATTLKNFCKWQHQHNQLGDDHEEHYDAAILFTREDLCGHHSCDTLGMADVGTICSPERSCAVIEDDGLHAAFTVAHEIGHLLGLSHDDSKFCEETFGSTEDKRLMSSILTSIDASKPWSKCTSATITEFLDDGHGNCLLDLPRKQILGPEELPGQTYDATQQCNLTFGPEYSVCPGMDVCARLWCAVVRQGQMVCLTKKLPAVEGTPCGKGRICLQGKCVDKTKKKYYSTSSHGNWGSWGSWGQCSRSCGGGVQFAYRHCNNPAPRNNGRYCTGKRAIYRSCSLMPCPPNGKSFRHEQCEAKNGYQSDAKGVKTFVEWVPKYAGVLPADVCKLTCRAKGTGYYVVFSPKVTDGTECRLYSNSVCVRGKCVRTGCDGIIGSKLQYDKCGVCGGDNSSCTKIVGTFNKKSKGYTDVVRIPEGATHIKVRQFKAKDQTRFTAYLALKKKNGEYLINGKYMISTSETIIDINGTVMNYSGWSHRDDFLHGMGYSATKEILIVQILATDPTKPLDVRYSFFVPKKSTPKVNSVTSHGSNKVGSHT

T3: MMP (matrix metalloproteinase)-1 catalytic domain (UniProt P03956 100-269)
T3 sequence (looked up): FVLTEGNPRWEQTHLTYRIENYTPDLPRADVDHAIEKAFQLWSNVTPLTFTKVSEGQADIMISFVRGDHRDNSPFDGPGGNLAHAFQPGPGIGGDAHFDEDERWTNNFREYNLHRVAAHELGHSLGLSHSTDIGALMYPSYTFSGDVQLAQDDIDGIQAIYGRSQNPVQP

T4: MMP-2 (UniProt P08253 110-660)
T4 sequence (looked up): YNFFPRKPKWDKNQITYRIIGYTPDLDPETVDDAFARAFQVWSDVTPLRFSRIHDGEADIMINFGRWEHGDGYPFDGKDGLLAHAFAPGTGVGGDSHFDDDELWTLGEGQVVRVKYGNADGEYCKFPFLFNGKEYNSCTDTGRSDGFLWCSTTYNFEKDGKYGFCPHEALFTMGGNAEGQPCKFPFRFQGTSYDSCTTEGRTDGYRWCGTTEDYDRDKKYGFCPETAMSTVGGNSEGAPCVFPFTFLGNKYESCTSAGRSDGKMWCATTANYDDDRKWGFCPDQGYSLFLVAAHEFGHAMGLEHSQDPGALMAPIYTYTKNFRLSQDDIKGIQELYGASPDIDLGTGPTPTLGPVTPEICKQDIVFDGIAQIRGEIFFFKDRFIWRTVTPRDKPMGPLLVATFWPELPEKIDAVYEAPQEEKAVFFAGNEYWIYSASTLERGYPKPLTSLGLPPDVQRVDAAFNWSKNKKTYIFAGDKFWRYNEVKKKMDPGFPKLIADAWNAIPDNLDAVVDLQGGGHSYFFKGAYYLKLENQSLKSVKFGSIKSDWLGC


Assays:
Assay in all cases: enzyme inhibition kinetics
[1] = molecular target: T1, Recombinant human ADAMTS-5 (adamalysin …)
[2] = molecular target: T1, Recombinant human ADAMTS-5 (adamalysin …); remark: listed apart in the source
[3] = molecular target: T2, ADAMTS5-2 (ADAMTS-5 lacking the …)
[4] = molecular target: T3, MMP (matrix metalloproteinase)-1 …
MMP-3 catalytic domain = MMP-3 catalytic domain (UniProt P08254 100-272)
MMP-2 = molecular target: T4, MMP-2

Chain of MMP-3 catalytic domain (P08254 100-272): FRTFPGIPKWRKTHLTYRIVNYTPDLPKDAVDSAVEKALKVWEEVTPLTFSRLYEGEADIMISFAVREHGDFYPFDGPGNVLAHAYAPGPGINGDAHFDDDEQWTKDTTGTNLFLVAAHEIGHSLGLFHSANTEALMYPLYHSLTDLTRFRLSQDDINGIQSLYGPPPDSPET

Row | Ki [1] [pM] | Ki [2] [pM] | Ki [3] [pM] | Ki [4] [pM] | Ki (MMP-3 catalytic domain) [pM] | Ki (MMP-2) [pM] | Binder
1 | 734000 ± 160 | 522000 ± 240 | – | – | – | – | TIMP-1 (tissue inhibitor of metalloproteinases 1) (natural protein) not shown
2 | – | – | 1340 ± 40 | – | – | – | TIMP-3(K26/27/30/76E+R163/K165Q) (natural protein, human, UniProt P35625 24-211, looked up) CTCSPSHPQDAFCNSDIVIRAKVVGEELVEEGPFGTLVYTIKQMKMYRGFTKMPHVQYIHTEASESLCGLKLEVNEYQYLLTGRVYDGKMYTGLCNFVERWDQLTLSQRKGLNYRYHLGCNCKIKSCYYLPCFVTSKNECLWTDMLSNFGYPGYQSKHYACIQQQGGYCSWYRGWAPPDKSIINATDP
3 | 560 ± 30 | – | – | 430 ± 120 | 900 ± 280 | 160 ± 2 | Recombinant human TIMP-3 (tissue inhibitor of metalloproteinases 3) (natural protein, UniProt P35625 24-211, looked up) CTCSPSHPQDAFCNSDIVIRAKVVGKKLVKEGPFGTLVYTIKQMKMYRGFTKMPHVQYIHTEASESLCGLKLEVNKYQYLLTGRVYDGKMYTGLCNFVERWDQLTLSQRKGLNYRYHLGCNCKIKSCYYLPCFVTSKNECLWTDMLSNFGYPGYQSKHYACIRQKGGYCSWYRGWAPPDKSIINATDP
